Measured values: patent US20120156203A1 (Genentech, published 2012)

Legend:
human IL13 [1] = molecular target: T1, human IL13 (human, UniProt P35225 35-146); assay: cell-based or functional assay
[2] = molecular target: T2, 12-mer peptide of human IL13, YCAALESLINVS (human, synthesized via SPOT on cellulose membrane); assay: peptide spot analysis on cellulose membrane
T2 peptide: YCAALESLINVS
Source text: This epitope was further confirmed by peptide spot analysis. The entire human IL13 peptide was scanned with a series of overlapping 12-mer peptides synthesized via SPOT on cellulose membrane. The only anti-IL13 MAb reactive peptide was identified as a 12-mer peptide of amino acid #44-56, […] (SEQ ID NO 19), which is overlapping with the region identified through domain swapping experiments.

human IL13 [3] = molecular target: T1, human IL13; assay: ELISA; wells coated with E. coli expressed non-glycosylated human IL13 (0.1 µg/mL); bound MAb detected with HRP-goat anti-mouse IgG (Fc); OD 450 nm
Method: (§1) The reactivity of various anti-IL13 monoclonal antibodies was tested by ELISA. Different wells of 96-well microtest plates were coated with either E. coli expressed non-glycosylated human IL13 (R&D Systems), 293T cell expressed glycosylated MT-IL13/Fc, or E. coli expressed mouse IL13 (R&D Systems) by the addition of 100 μL of IL13 protein at 0.1 μg/mL in PBS. After overnight incubation at room temperature, the wells were treated with PBSTB (PBST containing 2% BSA) to saturate the remaining binding sites. The wells were then washed with PBST.
(§2) One hundred microliters of two-fold serially diluted anti-IL13 MAbs (0.5 μg/mL (3.33 nM) to […] (0.00033 nM)) were added to the wells for 1 hour at room temperature. An anti-IL13 MAb JES-5A2 from (BD Biosciences-Pharmingen, San Diego, Calif.) was also tested as a positive control. This antibody was generated by using E. coli expressed human IL13 as immunogen. An isotype-matched mouse anti-HIV-1 gp120 MAb was used as irrelevant negative control. The wells were then washed with PBST. Bound antibody was detected by incubation with diluted HRP-goat anti-mouse IgG (Fc) (Jackson ImmunoResearch) for 1 hour at room temperature. Peroxidase substrate solution was then added for color development as described above. The OD₄₅₀ was measured using an ELISA reader.

[4] = molecular target: T3, IL-13 (antigen captured on the plate in the Fab ELISAs of Examples 9 and 10) (UniProt P35225 35-146); assay: ELISA; IL-13 captured on the plate in a limiting amount; Fab titrated 1:3; detected with a secondary antibody specific for Fab; A560 nm
T3 construct: also called the antigen IL-13
T3 sequence (P35225 35-146 limits assumed): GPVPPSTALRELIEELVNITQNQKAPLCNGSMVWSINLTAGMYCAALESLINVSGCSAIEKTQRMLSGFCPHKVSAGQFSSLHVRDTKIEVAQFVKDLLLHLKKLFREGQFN

[5] = molecular target: T3, IL-13 (antigen captured on the plate in …); assay: as above; remark: listed apart in the source
[6] = molecular target: T3, IL-13 (antigen captured on the plate in …); assay: as above; remark: listed apart in the source
[7] = molecular target: T3, IL-13 (antigen captured on the plate in …); assay: ELISA; IL-13 captured on the plate in a limiting amount; Fab titrated 1:3; detected with a secondary antibody specific for Fab; A410 nm
[8] = molecular target: T3, IL-13 (antigen captured on the plate in …); assay: ELISA; IL-13 captured on the plate in a limiting amount; Fab titrated 1:3; detected with a secondary antibody specific for Fab; A 560 nm
[9] = molecular target: T3, IL-13 (antigen captured on the plate in …); assay: competition ELISA; IL-13 captured on the plate; purified Fab pre-mixed with a constant concentration of labeled chimeric anti-IL-13 Fab (228 B/C #3); Abs 590 nm of bound labeled Fab
Method: To confirm that these combinatorial candidates maintained function, a competition assay was performed. For this assay, IL-13 was captured on an ELISA plate. The candidates, which are purified Fabs, were pre-mixed in varying concentrations to a constant concentration of labeled chimeric anti-IL-13 Fab. This mixture was added to the ELISA plate. The labeled chimeric anti-IL-13 capable of binding to the plate-bound IL-13 were detected.

mouse IL13 = molecular target: T4, mouse IL13 (mouse, UniProt P20109 22-131, limits assumed); assay: ELISA on plate-coated E. coli expressed mouse IL13
T4 construct: also called E. coli expressed mouse IL13 (R&D Systems); murine IL13
T4 sequence: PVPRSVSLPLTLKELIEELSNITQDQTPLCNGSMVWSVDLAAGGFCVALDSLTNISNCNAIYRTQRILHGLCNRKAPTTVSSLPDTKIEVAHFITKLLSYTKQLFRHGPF
Method: as §1, §2

T1 sequence (P35225 other isoform, or with tags, fused parts or gaps limits assumed): as the sequence (P35225 35-146 limits assumed) above, with Q110R counted along it

B1: anti-IL13 monoclonal antibody 228B/C-1 (antibody, V domains shown)
VH: QVQLQESGPGLVAPSQSLSITCTVSGFSLNAYSVNWVRQPPGKGLEWLGMIWGDGKIVYNSALKSRLNISKDSSKSQVFLKMSSLQSDDTARYYCAGDGYYPYAMDNWGHGTSVTVSS
VL: NIVLTQSPASLAVSLGQRATISCRASKSVDSYGNSFMHWYQQKPGQPPKLLIYLASNLESGVPARFSGSGSRTDFTLTIDPVEADDAASYYCQQNNEDPRTFGGGTKLEIK
molar stoichiometric ratio (MAb:IL13) for complete inhibition, CD14 and CD23 assays (human IL13 [1]): 0.5 MAb:IL13 molar ratio | molar stoichiometric ratio between 228B/C-1 and IL13 for complete inhibition, Stat6 assay (human IL13 [1]): ~0.5 MAb:IL13 molar ratio | binding result [2]: binds | EC50 (read off the curve) (human IL13 [3]): ~10 pM

B2: chimeric Fab of 228B/C (Fab, V domains shown)
VH: QVQLQESGPGLVAPSQSLSITCTVSGFSLNAYSVNWVRQPPGKGLEWLGMIWGDGKIVYNSALKSRLNISKDSSKSQVFLKMSSLQSDDTARYYCAGDGYYPYAMDNWGHGTSVTVSS
VL: NIVLTQSPASLAVSLGQRATISCRASKSVDSYGNSFMHWYQQKPGQPPKLLIYLASNLESGVPARFSGSGSRTDFTLTIDPVEADDAASYYCQQNNEDPRTFGGGTKLEIK
modifications: Used labeled in the competition assay of paragraph 260; the label is not named.
notes: also called chimeric clone
EC50 (read off the curve) [4]: ~10 ng/mL | EC50 (read off the curve) [5]: ~7 ng/mL | EC50 (read off the curve) [6]: ~4 ng/mL | EC50 (read off the curve) [7]: ~20 ng/mL | EC50 (read off the curve) [8]: ~7 ng/mL | IC50 (read off the curve) [9]: ~90 ng/mL

B3: anti-IL13 monoclonal antibody 227-26 (antibody, V domains shown)
VH: QVQLQQSGDDLVLPGASVKLSCKASGYTFTSYWINWIKQRPGQGLEWIGHIAPGSGSTYFNEMFKGKATLTVDTSSSTAYIQLSSLSSEDSAVYFCARSDIFLSYAMDYWGQGTSVTVSS
VL: DVLMTQTPLSLPVSLGDQASISCRSSQSIVHSNGNTYLQWYLQKPGQSPKLLIYKVSNRFSGVPDRFSGSGSGTDFTLKISRVEAEDLGVYYCFQGSHVPYTFGGGTKLEIK
notes: also called hybridoma ATCC PTA-5654
binding result (mouse IL13): no binding | EC50 (read off the curve) (human IL13 [3]): ~20 pM
